Patent publication US20220110851A1 (SKINMED, published 2022)
No end group written: not given here.

Target: acetylcholine receptor on AchR-overexpressed TE671 cells
Test: cell-based or functional assay

Binder	AchR inhibitory rate, TE671 cells, 400 µM nicotine, 20 µM peptide	AchR inhibition, TE671 cells, 400 µM nicotine	inhibitory ability on nicotinic acetylcholine receptors, in multiples compared with Spep-2	AchR inhibitory effect, Fura-2 fluorescence in TE671 cells after 1 µM acetylcholine	IC50 value for AchR (AchR inhibitory effect in TE671 cells)
RFRRGVRR [L1-13]	~100%	–	–	–	–
PNGKVRKRIRRRYF [L3-28]	~100%	100%	16 times	–	–
WTWKGRDKLQM [Spep-4]	–	–	–	17%	–
WTWKGRKSLLR [Spep-2]	~10%	100%	–	–	750 nM
WTWKGRKSLLR (also: palmitoyl conjugated, site not given here) [Palmitoyl-Spep-2]	–	–	–	–	75 nM
RARKKRKSLLRRQV [L3-27]	~100%	100%	8 times	–	–
RYAKHRKRQTR [L2-110]	~100%	100%	8 times	–	–
SNVKRKRGRCKPYR [L3-37]	~100%	–	32 times	–	–
WTWKGNKQVKF [Spep-10]	–	–	–	47%	–
